Results taken from the RNAGym collection of RNA variant scans (doi:10.1073/pnas.2313332121).

B1: TPR t1 (parent)
chain: GACCAAUCUGCCCUCAGAGCUCGAGAACAUCUUCGGAUGCAGAGGAGGCAGGCUUCGGUGGCGCGAUAGCGCCAACGUCCUCAACCUCCAAUGCAUCCCACCACAUGAUGAUGCCUGAAGAGCCUUGGUUUUUUG

Variants of: B1
Test: polymerase ribozyme fitness, log enrichment relative to wild type (log ratio); higher = more active; in vitro selection for triplet polymerase activity
Procedure, shortened: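 Streptavidin-bead capture of gel-excised extended constructs, followed by RT-PCR, closed a single triplicate in vitro selection round. That round began by annealing PCR-built, transcribed mutant libraries of each subunit of a heterodimeric triplet polymerase ribozyme with a biotinylated primer, the partner subunit and triplets, then incubating them frozen at −7 °C. After Illumina sequencing of inputs and outputs, genotypes needed ≥10 input reads and ≥1 read per output. Fitness is the base-2 logarithm of genotype enrichment over wild-type enrichment, using inverse-variance-weighted replicate averages.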

Row | Variant | polymerase ribozyme fitness (log ratio)
1 | C13A C62U | -2.18
2 | U59C A91U | -2.41
3 | C73G C82A A90U C123G | -0.559
4 | A29G G117C | -3.99
5 | G10C C70U | -1.63
6 | C53A C56G G63C U106C | -0.653
7 | A2U A18U C124A U129G | -2.31
8 | A2G A6C C56U | 0.182
9 | G10U G113C U125A | -3.42
10 | G42A C72G G93U | -3.39
11 | C85A U106A U125A | -3.11
12 | G52A C114G | -3.02
13 | G35C G39U C64U | -7.51
14 | C49U A50G U78C C115A | -1.98
15 | C40G G63U | -1.85
16 | G63U U131A | -0.516
17 | G47A C115A | -1.2
18 | C4U G52U G61C C124G U131G | -0.648
19 | C20U U81A | -1.98
20 | C3U A43G U55G A111G U126A | -4.64
21 | U96G C102G G113U | -5.71

Row | Variant | polymerase ribozyme fitness (log ratio)
22 | U33A G52U G61C C115A | -4.91
23 | A41U C72A G113C | -2.13
24 | C102U | -1.71
25 | C49A U96C | -0.589
26 | C8A G44U C123U | 0.898
27 | C40U C101U C124A | 1.16
28 | U14A U59A A91G | -4.05
29 | A37U C72U C98A C123G | -5.11
30 | C8G U21C G45U C49G | -0.918
31 | C13U A24G C70A C73A C104U A111U | -6.33
32 | G42U C53G G69U | -0.375
33 | G48C G63C | -2.72
34 | A66U G77A A95C | -2.7
35 | C72G U87C C99U C115G | -5.69
36 | G63U U112A A119G | -0.127
37 | U33A U81A C102G G110C C115G | -6.08
38 | C56U G77U C101A | -1.15
39 | C56G C89G G122A U129A | -4.09
40 | C8G G61C C89U C104U | -2.02
41 | C34U G61C C80U A83G | -7.08
42 | G35U C97U G120U | -5.69

Row | Variant | polymerase ribozyme fitness (log ratio)
43 | G69A C89U | -2.85
44 | C28G C76U | -3.02
45 | A91G G120U | 0.174
46 | G60A A74G | -2.01
47 | C34U A90U | -4.66
48 | C49U U132C | -0.889
49 | C12U U33G C123G | -4.3
50 | C8G A27U G93U | -3.29
51 | A18C C34U U112A A119G | -6.08
52 | C3U G60A | -0.489
53 | C53G G61A | -1.75
54 | C70A C86A G113A C123G | -2.59
55 | A50U A74C A84G U112A | -4.89
56 | C56G G120A | 0.238
57 | C8G U78C G93A C123A | 1.83
58 | C12U C85U A95C | -1.78
59 | G42A U55A U112G C115A | -2.35
60 | C73A A119U U132C | -0.485
61 | C13A G42U | -3.39
62 | G61U C88G | -1.3
63 | C12G A83C | -1.43

Row | Variant | polymerase ribozyme fitness (log ratio)
64 | G10A G17A A37G G42U C53A C64U A100U | -5.75
65 | A5U C15G A43G U54G C114U G122U | -6.04
66 | A43C G44C G71C A118U U133G | -1.6
67 | U112C C124A G128A | 0.254
68 | A5C C53U | -1.88
69 | A16U G42U U130C | -3.77
70 | A27G A29U C73U U125A | -3.73
71 | C13U G63A C101U | -0.511
72 | A18U C88A | -3.06
73 | A6U A83U C115U | -1.65
74 | C12A G45U A100U | -3.05
75 | U32A C40U C101A C124A | -3.05
76 | G36C C53U G61A U112A G113U | -1.83
77 | G61A G122U | 0.115
78 | C80U C101A | -1.52
79 | G45U U81A | -3.03
80 | G17A A74U | -4.06
81 | U7C A91U G117U | -2.74
82 | C12U G39U | -0.353
83 | C3A C8U U59A U87G | -1.65
84 | A26G C88G C97U C123A | -3.63
